In patent publication US10941182 (Amgen, dated 2021):
Starred links: 1 amine or outer side, 2 acyl side, 3 side chain; linkers in the order of their positions; H or OH if unused. Non-standard residues stand in square brackets, D forms with d. *: point of attachment. Bh4ClF = β-4-chloro-L-homophenylalanine, O=C(C[C@H](Cc1ccc(Cl)cc1)N[*:1])[*:2]; AC4Abu = α-carboxy-4-aminobutyric acid, O=C(C(CCN[*:1])C(=O)[*:3])[*:2]; Oic = O=C(O)[C@@H]1C[C@@H]2CCCC[C@@H]2N1; Phe(4-Cl) = N[C@@H](Cc1ccc(Cl)cc1)C(=O)O; γGlu = O=C(O)[C@H](CCC(=O)[*:2])N[*:1]; 1Nal = N[C@@H](Cc1cccc2ccccc12)C(=O)O; 2Nal = N[C@@H](Cc1ccc2ccccc2c1)C(=O)O; Gly(cPent) = N[C@H](C(=O)O)C1CCCC1; Tridecanoyl = CCCCCCCCCCCCC(=O)*; hArg = N=C(N)NCCCC[C@H](N)C(=O)O; Cha = N[C@@H](CC1CCCCC1)C(=O)O; Aic = NC1(C(=O)O)Cc2ccccc2C1; Nle = CCCC[C@H](N)C(=O)O; AEEA = NCCOCCOCC(=O)O

T1: rat APJ receptor (rat, UniProt Q9JHG3 1-377)
T1 sequence (looked up): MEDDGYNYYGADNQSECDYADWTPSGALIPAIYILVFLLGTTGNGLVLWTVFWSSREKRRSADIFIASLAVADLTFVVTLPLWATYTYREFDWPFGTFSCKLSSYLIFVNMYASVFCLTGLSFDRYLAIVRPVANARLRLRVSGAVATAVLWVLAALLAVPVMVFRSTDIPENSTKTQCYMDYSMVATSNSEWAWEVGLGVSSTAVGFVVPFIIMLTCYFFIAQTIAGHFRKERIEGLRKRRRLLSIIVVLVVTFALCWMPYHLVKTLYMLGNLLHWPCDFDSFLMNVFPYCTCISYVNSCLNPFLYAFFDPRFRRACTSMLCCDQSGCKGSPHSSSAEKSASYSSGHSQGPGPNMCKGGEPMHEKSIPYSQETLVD

T2: human APJ receptor (human, UniProt P35414 1-380)
T2 sequence (looked up): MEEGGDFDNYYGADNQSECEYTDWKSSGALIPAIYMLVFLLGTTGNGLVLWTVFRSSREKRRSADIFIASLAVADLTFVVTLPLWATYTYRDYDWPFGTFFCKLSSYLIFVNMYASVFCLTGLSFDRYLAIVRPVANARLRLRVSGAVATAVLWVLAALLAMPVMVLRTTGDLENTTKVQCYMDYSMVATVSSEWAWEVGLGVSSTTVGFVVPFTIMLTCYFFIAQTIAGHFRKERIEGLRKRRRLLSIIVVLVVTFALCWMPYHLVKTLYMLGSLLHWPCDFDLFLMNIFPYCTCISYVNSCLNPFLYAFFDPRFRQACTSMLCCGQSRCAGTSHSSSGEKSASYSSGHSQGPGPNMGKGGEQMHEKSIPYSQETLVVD


Legend:
rat APJ receptor = target: T1, rat APJ receptor; test: cell-based or functional assay
human APJ receptor = target: T2, human APJ receptor; test: cell-based or functional assay

Row | Binder | EC50 Rat APJ Receptor (GTPγS assay) (rat APJ receptor) [µM] | EC50 Human APJ Receptor (GTPγS assay) (human APJ receptor) [µM]
1 | Tridecanoyl-[γGlu][AEEA][AEEA][dQ][hArg]P[dR][Cha]SHKG[Oic][Nle]P[Phe(4-Cl)]-OH [Apelin polypeptide SEQ ID NO: 363] | 0.00396 | 0.00327
2 | Tridecanoyl-[γGlu][AEEA][AEEA]Q[hArg]P[dR][Cha]SHKG[Oic][Nle]P[D‑4ClF]-OH [Apelin polypeptide SEQ ID NO: 364] | 0.0204 | 0.006
3 | Tridecanoyl-[γGlu][AEEA][AEEA][dQ][hArg]P[dR][Cha]SHKG[Oic][Nle]P[Oic]-OH [Apelin polypeptide SEQ ID NO: 365] | 0.0207 | 0.023
4 | Tridecanoyl-[γGlu][AEEA][AEEA][dQ][hArg]P[dR][Cha]SHKG[Oic][Nle]P[Aic]-OH [Apelin polypeptide SEQ ID NO: 366] | 0.0236 | 0.0171
5 | Tridecanoyl-[γGlu][AEEA][AEEA][dQ][hArg]P[dR][Cha]SHKG[Oic][Nle]P[1Nal]-OH [Apelin polypeptide SEQ ID NO: 367] | 0.0675 | 0.0263
6 | Tridecanoyl-[γGlu][AEEA][AEEA][dQ][hArg]P[dR][Cha]SHKG[Oic][Nle]P[2Nal]-OH [Apelin polypeptide SEQ ID NO: 368] | 0.0314 | 0.0323
7 | Tridecanoyl-[γGlu][AEEA][AEEA][dQ][hArg]P[dR][Cha]SHKG[Oic][Nle]P[D‑4IF]-OH [Apelin polypeptide SEQ ID NO: 369] | 0.042 | 0.0259
8 | Tridecanoyl-[γGlu][AEEA][AEEA][dQ][hArg]P[dR][Cha]SHKG[Oic][Nle]P[Bh4ClF]-OH [Apelin polypeptide SEQ ID NO: 370] | 0.0237 | 0.0129
9 | Tridecanoyl-[AC4Abu][AEEA][AEEA][dQ][hArg]P[dR][Cha]SHKG[Oic][Nle]P[Gly(cPent)]-OH (SMILES CCCCCCCCCCCCC(=O)NCCC(C(=O)O)C(=O)NCCOCCOCC(=O)NCCOCCOCC(=O)N[C@H](CCC(N)=O)C(=O)N[C@@H](CCCCNC(=N)N)C(=O)N1CCC[C@H]1C(=O)N[C@H](CCCNC(=N)N)C(=O)N[C@@H](CC1CCCCC1)C(=O)N[C@@H](CO)C(=O)N[C@@H](Cc1c[nH]cn1)C(=O)N[C@@H](CCCCN)C(=O)NCC(=O)N1[C@H](C(=O)N[C@@H](CCCC)C(=O)N2CCC[C@H]2C(=O)N[C@H](C(=O)O)C2CCCC2)C[C@@H]2CCCC[C@@H]21) [Apelin polypeptide SEQ ID NO: 406] | 0.073 | 0.0336
